Test results published in patent publication US11155577B2, “Thiol-ene based peptide stapling and uses thereof” (University of Utah Research Foundation, priority 2015, dated 2021).
Values belong to the substance of their own block, whether it stands above or below them. Bridge positions count the residues as written; N and C are the ends. Square brackets hold non-standard residues; d marks the D form. S5 = C=CCCC[C@](C)(N)C(=O)O; Ae = not defined here

What was measured:
[1] = Circular dichroism (CD) evaluation of alpha helicity; format: physicochemical; conditions: in water, 25° C., 100 μM peptide
Experimental: All CD spectra were recorded on an AVIV Model 410 spectrophotometer (AVIV) in water in a 1 mm QS quartz cuvette (Stama) at 25° C. Wavelength scans were performed at 1-nm resolution with 1-s averaging time. Data from double scans were averaged, blank subtracted, and normalized to mean residue ellipticity by the following equation; [θ]=100×θ/C×l×(n−1), where C is concentration of protein in mM, l is path length in centimeters, and n is the number of residues in the protein. The concentrations of the protein samples used for CD experiments were 100 μM. The percentage helicity was calculated from the […] at 222 nm using helical models as previously reported (Y. H. Chen, J. T. Yang, K. H. Chau. Biochemistry 1974, 13, 3350-3359).

p53-MDM2 interaction = biological target: T1, p53-MDM2 interaction (Homo sapiens, UniProt Q00987); assay: ELISA assay for p53-MDM2 interactions; format: binding; conditions: 1-hour incubation with p53-MDM2 protein complexes
T1 construct: purchased Enzo Life Sciences
T1 sequence (Q00987 whole entry): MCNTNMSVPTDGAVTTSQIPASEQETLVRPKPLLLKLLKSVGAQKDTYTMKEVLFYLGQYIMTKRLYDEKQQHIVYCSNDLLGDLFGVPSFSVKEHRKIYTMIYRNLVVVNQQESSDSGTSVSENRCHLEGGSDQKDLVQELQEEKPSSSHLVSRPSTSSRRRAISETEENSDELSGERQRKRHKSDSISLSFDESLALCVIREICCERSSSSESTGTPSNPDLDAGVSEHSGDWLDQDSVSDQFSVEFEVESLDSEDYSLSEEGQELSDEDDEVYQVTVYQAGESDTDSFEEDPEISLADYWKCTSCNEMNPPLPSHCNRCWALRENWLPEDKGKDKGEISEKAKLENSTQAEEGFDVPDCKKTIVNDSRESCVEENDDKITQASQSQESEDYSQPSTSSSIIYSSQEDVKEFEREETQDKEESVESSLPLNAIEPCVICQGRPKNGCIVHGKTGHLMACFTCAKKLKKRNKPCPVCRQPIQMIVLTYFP
Experimental: The ELISA kit was purchased from Enzo Life Sciences (New York, USA). TMB substrate was purchased from Cell Signaling Technology (Massachusetts. USA). The assay was performed according to the manufacture's protocol. Briefly, p53 antibody was coated on a 96-well plate overnight. After the coating, peptides and p53-MDM2 protein complexes were diluted in assay buffer and added to the wells. After 1-hour incubation, all wells were washed and detection antibody was added. After another 1-hour incubation, SA-HRP was added and incubated for 30 minutes before TMB substrate was added. 1N HCl was then added to stop the color development and the signal was measure using automatic plate reader (BioTek Synergy Neo).

[2] = system: p53 wild-type HCT-116 colorectal carcinoma cells; conditions: F. Bernal et al., Cancer Cell 2010; cited from earlier work
[3] = system: p53-null HCT-116 colorectal carcinoma cells; assay: Cell-viability assay (CellTiter Glo), HCT-116 p53 null; format: cell-based; conditions: 24-hour incubation
Experimental: (§1) Both HCT-116 cell lines, i.e., HCT-116 p53 wild-type and HCT-116 p53 null, were obtained from Dr. Trudy Oliver (University of Utah). Cell lines were cultured in 10% FBS media (DMEM, Pen/Strep). Briefly. 20,000 cells/well in 1% FBS media were seeded in 96-well plates. After 24 hours, stapled peptides with various concentrations were added to each well. After another 24-hour incubation, media were aspirated and CellTiter Glo reagent was added according to the protocol from Promega. Luminescence signal was measured by automatic plate reader (BioTek Synergy Neo).

[4] = system: p53-null HCT-116 colorectal carcinoma cells; conditions: F. Bernal et al., Cancer Cell 2010; cited from earlier work
[5] = system: p53 wild-type HCT-116 colorectal carcinoma cells; assay: Cell-viability assay (CellTiter Glo), HCT-116 p53 wild-type; format: cell-based; conditions: 24-hour incubation
Experimental: as §1

Substance: Ac-Glu-Asn-Pro-Glu-Cys-Ile-Leu-Asp-Cys-His-Val-Gln-Arg-Val-Met-NH2 (Ac-ENPECILDCHVQRVM-NH2; cysteine pairing not given here) [Peptide 10, unstapled axin homologue with 2 Cys residues]
- alpha helicity (CD spectra) [1]: low alpha-helical property

Substance: Ac-Glu-Asn-Pro-GLu-S5-Ile-Leu-Asp-S5-His-Val-Gln-Arg-Val-Met-NH2 (Ac-ENPE[S5]ILD[S5]HVQRVM-NH2; staple 5-9; SMILES CC[C@H](C)[C@@H]1NC(=O)[C@@](C)(NC(=O)[C@H](CCC(=O)O)NC(=O)[C@@H]2CCCN2C(=O)[C@H](CC(N)=O)NC(=O)[C@H](CCC(=O)O)NC(C)=O)CCCC=CCCC[C@@](C)(C(=O)N[C@@H](Cc2c[nH]cn2)C(=O)N[C@H](C(=O)N[C@@H](CCC(N)=O)C(=O)N[C@@H](CCCNC(=N)N)C(=O)N[C@H](C(=O)N[C@@H](CCSC)C(N)=O)C(C)C)C(C)C)NC(=O)[C@H](CC(=O)O)NC(=O)[C@H](CC(C)C)NC1=O) [Peptide 9]
- alpha helicity (CD spectra) [1]: strong alpha-helical characteristics

- blocking of the p53-MDM2 interaction (p53-MDM2 interaction): did not block the p53-MDM2 interaction
Substance: Ae-Gln-Ser-Gln-Gln-Thr-Phe-Cys-Asn-Leu-Trp-Arg-Leu-Leu-Cys-Gln-Asn-NH2 (Ae-QSQQTFCNLWRLLCQN-NH2; not fully specified; printed as Ae-Gln-Ser-Gln-Gln-Thr-Phe-Cys-Asn-Leu-Trp-Arg-Leu-Leu-Cys-Gln-Asn-NH2; cysteine pairing not given here; reading uncertain) [Peptide 13, unstapled p53 homologue with 2 Cys residues]

Substance: Ac-Gln-Ser-Gln-Gln-Thr-Phe-R8-Asn-Leu-Trp-Arg-Leu-Leu-S5-Gln-Asn-NH2 [Peptide 12]
- alpha helicity (CD spectra) [1]: significant increase of alpha helicity compared to the unstapled peptide 13
- induction of cell apoptosis in p53 wild-type cells (previously reported) [2]: selectively induces cell apoptosis in p53 wild-type cells
- induction of apoptosis / cell viability in p53 null cells [3]: not p53 null cells
- induction of cell apoptosis in p53 null cells (previously reported) [4]: not p53 null cells
- induction of apoptosis / cell viability in p53 wild-type cells [5]: induction of apoptosis in p53 wild-type cells
